From publication PMC6125598

Target: STIM1-CFP (stromal interacting molecule 1) (UniProt Q13586)
Assay: FRET or BRET; FRET between YFP-IP3R and STIM1-CFP in transfected cells, measured in TIRFM mode (less than 100 nm from the coverslip), after bradykinin stimulation (cells transfected with the human bradykinin type 2 receptor)

UniProt Q13586, sequence (Q13586 23-685): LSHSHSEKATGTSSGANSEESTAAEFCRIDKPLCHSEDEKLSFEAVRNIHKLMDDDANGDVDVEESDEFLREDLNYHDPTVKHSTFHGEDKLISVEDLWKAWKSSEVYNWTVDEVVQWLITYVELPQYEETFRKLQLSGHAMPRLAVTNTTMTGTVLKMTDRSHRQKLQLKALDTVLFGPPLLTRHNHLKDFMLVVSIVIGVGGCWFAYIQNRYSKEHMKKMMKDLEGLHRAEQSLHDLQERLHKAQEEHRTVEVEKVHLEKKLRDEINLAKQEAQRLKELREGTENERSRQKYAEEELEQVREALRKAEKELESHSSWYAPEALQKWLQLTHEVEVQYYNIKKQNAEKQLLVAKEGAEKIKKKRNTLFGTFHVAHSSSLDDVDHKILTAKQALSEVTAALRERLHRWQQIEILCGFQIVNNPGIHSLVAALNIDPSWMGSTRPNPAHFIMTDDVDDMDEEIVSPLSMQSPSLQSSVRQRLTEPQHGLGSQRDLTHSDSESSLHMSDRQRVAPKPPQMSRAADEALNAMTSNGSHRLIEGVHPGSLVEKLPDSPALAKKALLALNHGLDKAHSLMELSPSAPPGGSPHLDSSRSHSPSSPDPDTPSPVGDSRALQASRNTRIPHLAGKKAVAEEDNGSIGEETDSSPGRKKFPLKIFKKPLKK

FRET efficiency: 24%
Substance: YFP-IP3R (inositol trisphosphate receptor type 1) (from UniProt Q14643-2 1-2743)
